In article PMC4239610, “A Peptide Derived from G0/G1 Switch Gene 2 Acts as Noncompetitive Inhibitor of Adipose Triglyceride Lipase” (The Journal of Biological Chemistry, 2014):

Target: T1, murine adipose triglyceride lipase, Strep fusion (Strep-mATGL) (mouse) (UniProt Q8BJ56)
T1 sequence: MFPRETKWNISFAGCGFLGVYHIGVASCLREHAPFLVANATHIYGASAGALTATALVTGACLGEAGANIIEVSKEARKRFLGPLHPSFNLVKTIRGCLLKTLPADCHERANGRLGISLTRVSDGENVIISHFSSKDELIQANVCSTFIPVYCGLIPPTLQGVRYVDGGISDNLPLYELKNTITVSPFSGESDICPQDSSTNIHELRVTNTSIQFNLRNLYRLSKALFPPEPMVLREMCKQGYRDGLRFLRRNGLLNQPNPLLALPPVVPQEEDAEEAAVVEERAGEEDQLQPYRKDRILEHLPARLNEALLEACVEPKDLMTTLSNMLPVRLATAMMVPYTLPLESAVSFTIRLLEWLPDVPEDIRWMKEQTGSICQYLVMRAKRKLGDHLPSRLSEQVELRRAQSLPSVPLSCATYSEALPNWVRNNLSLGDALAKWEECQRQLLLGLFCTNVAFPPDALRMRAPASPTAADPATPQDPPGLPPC

- IC50 of inhibition of CGI-58-stimulated mATGL TG hydrolase activity, dose-response with full-length hG0S2: 19 nM
B1: human G0/G1 switch gene 2 protein, full length (hG0S2) (natural protein)
chain: METVQELIPLAKEMMAQKRKGKMVKLYVLGSVLALFGVVLGLMETVCSPFTAARRLRDQEAAVAELQAALERQALQKQALQEKGKQQDTVLGGRALSNRQHAS
